Reference: patent US20190032033A1 (HEPTARES THERAPEUTICS, published 2019)
Numbering of substitutions follows the chain as printed. Like-named read-outs stand apart in the source and are kept apart here.

Legend:
[1] = target: T1, human adenosine A2A receptor (residues 1-308, N154A) (human, UniProt P29274 1-308); assay: cell-based or functional assay
[2] = target: T1, human adenosine A2A receptor (residues …); assay: cell-based or functional assay; remark: listed apart in the source
[3] = target: T2, C-terminally truncated human A2AR (residues 1-317, N154A) (human, UniProt P29274 1-317); assay: thermostability assay, DM-solubilised NECA-bound A2AR
T2 construct: range 1-317; C-terminal TEV site and His10 tag kept (used for immobilisation)

[4] = target: T3, thioredoxin-A2AR fusion protein (human, UniProt P29274 6-316); assay: analytical SEC of purified NECA-bound A2AR mixed with mini-Gs/q (1:1.2 molar ratio) and Coomassie-stained SDS-PAGE of fractions 10-20
T3 construct: range 6-316; gp67 leader is cleavable; not shown: His10 tag, TEV protease cleavage site and thioredoxin

[5] = target: T2, C-terminally truncated human A2AR …; assay: cell-based or functional assay
[6] = target: rat neurotensin receptor NTSR1 (residues 43-396) (rat, UniProt P20789 43-396); assay: cell-based or functional assay
[7] = target: T4, human angiotensin II type 1 receptor AT1R (residues 1-359) (human, UniProt P30556 1-359); assay: cell-based or functional assay
T4 sequence (looked up): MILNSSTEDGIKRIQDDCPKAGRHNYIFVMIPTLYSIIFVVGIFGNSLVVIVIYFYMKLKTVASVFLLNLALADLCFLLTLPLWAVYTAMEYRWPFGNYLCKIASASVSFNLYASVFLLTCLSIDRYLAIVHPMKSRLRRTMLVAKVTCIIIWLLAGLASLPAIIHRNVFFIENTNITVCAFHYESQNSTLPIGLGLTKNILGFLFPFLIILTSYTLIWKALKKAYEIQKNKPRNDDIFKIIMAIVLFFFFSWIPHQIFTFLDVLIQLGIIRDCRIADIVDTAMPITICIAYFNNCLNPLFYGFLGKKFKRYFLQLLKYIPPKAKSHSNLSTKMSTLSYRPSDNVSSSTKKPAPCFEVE

[8] = target: β1AR-WT (wild type-like turkey β1 adrenergic receptor construct) (turkey, UniProt P07700 33-423, limits assumed); assay: cell-based or functional assay
[9] = target: T3, thioredoxin-A2AR fusion protein; assay: analytical SEC of purified NECA-bound A2AR mixed with mini-Gs/q (1:1.2 molar ratio) and Coomassie-stained SDS-PAGE of fractions 10-20; remark: listed apart in the source

Chain of β1AR-WT (wild type-like turkey β1 adrenergic receptor construct) (P07700 other isoform, or with tags, fused parts or gaps limits assumed): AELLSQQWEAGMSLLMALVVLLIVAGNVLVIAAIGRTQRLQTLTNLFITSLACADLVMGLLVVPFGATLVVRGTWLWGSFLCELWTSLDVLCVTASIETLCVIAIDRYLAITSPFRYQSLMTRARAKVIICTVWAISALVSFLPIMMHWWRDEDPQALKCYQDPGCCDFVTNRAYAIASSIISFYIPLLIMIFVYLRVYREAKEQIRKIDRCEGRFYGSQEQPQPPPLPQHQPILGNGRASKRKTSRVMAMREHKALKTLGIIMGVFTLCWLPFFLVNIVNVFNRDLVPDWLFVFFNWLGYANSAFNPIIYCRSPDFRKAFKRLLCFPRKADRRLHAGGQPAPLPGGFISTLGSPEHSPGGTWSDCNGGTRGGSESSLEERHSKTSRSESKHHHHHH
T2 sequence (P29274 1-317 N154A): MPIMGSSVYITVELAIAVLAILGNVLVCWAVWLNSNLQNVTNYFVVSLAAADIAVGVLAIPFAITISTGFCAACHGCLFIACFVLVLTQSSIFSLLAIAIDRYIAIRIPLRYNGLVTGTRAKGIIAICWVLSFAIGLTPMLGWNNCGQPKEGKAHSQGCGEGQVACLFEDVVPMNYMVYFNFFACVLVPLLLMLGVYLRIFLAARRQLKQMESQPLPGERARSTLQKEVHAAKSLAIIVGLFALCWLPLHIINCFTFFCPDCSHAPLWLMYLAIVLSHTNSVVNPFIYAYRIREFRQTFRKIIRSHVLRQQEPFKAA
T1 sequence (P29274 1-308 N154A): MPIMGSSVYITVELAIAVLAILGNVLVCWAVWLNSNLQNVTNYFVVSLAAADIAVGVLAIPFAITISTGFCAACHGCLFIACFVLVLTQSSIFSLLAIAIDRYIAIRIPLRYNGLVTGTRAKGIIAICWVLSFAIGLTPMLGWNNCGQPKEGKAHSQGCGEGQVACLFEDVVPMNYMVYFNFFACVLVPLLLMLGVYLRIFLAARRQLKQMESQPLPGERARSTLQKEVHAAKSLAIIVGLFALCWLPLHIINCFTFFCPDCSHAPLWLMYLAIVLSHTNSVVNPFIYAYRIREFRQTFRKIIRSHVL
T3 sequence (P29274 other isoform, or with tags, fused parts or gaps): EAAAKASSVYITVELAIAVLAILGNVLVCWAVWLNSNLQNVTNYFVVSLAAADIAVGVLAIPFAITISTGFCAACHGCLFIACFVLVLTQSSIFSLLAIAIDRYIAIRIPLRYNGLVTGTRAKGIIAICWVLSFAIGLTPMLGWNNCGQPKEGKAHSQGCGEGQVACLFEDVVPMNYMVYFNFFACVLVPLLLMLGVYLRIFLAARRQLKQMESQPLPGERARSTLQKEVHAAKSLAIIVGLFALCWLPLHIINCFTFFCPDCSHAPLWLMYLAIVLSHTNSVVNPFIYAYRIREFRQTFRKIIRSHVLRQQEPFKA
Chain of rat neurotensin receptor NTSR1 (residues 43-396) (P20789 43-396 limits assumed): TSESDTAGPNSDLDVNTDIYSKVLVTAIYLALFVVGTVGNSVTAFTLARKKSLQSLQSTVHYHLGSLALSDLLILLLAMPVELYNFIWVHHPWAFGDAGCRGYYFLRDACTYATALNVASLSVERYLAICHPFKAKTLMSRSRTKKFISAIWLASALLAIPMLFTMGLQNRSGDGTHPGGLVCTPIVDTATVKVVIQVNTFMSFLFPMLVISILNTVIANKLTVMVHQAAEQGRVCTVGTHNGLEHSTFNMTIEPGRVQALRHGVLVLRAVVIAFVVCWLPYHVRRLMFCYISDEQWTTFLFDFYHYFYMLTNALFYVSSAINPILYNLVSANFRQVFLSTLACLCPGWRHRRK

B1: Mini-Gs414 (other)
chain: GIEKQLQKDKQVYRATHRLLLLGADNSGKSTIVKQMRIYHGGSGGSGGTSGIFETKFQVDKVNFHMFDVGGQRDERRKWIQCFNDVTAIIFVVDSSDYNRLQEALNDFKSIWNNRWLRTISVILFLNKQDLLAEKVLAGKSKIEDYFPEFARYTTPEDATPEPGEDPRVTRAKYFIRDEFLRISTASGDGRHYCYPHFTCAVDTENARRIFNDCRDIIQRMHLRQYELL
[1]
  apparent Tm of DM-solubilised NECA-bound A2AR: 32.9 °C
[2]
  ΔTm of 3H-NECA-bound A2AR with mini-Gs414 against A2AR only, in decylmaltoside (DM): 6.8 °C
  ΔTm of 3H-NECA-bound A2AR with mini-Gs414 against A2AR only, in dodecylmaltoside (DDM): 7.2 °C
  ΔTm of 3H-NECA-bound A2AR with mini-Gs414 against A2AR only, in octylglucoside (OG): 13.4 °C

B2: mini-Gs/q70 (other)
chain: B1 chain with Y39L, R215K, Q219L, R220Q, H222N, Q225E, E227N, L229V
notes: also called mini-Gs/q chimera; Gs/q construct 70
[3]
  binding result: no binding (tested: 25 µM)
[4]
  binding result: no binding
[5]
  apparent Tm of DM-solubilised 3H-NECA-bound A2AR (alone 26.9 °C): 27.5 °C
[6]
  apparent Tm of DDM-solubilised 3H-NTS-bound NTSR1 (alone 24.9 °C): 32.5 °C
[7]
  apparent Tm of digitonin-solubilised 125I-AngII-bound AT1R (alone 22.6 °C): 30.7 °C

B3: Mini Gs393 (other)
chain: B1 chain with Y39L
[8]
  apparent Tm of β1AR-WT complex in decylmaltoside (receptor alone 20.4 °C): 30.5 °C
  apparent Tm of β1AR-WT complex in dodecylmaltoside (receptor alone 25.9 °C): 34.1 °C
  apparent Tm of β1AR-WT complex in nonylglucoside (uncoupled receptor did not survive): 24.7 °C
  apparent Tm of β1AR-WT complex in octylglucoside (uncoupled receptor did not survive): 19.7 °C

B4: mini-Gs/q58 (other)
chain: MGHHHHHHENLYFQGIEKQLQKDKQVYRATHRLLLLGADNSGKSTIVKQMRILHGGSGGSGGTSGIFETKFQVDKVNFHMFDVGGQRDERRKWIQCFNDVTAIIFVVDSSDYNRLQEALNDFKSIWNNRWLRTISVILFLNKQDLLAEKVLAGKSKIEDYFPEFARYTTPEDATPEPGEDPRVTRAKYFIRDEFLRISTASGDGRHYCYPHFTCAVDTENARRIFAAVKDTILQLNLKEYNLV
[3]
  binding result: no binding (tested: 25 µM)
[9]
  binding result: no binding
[5]
  apparent Tm of DM-solubilised 3H-NECA-bound A2AR (alone 26.9 °C): 26.9 °C
[6]
  apparent Tm of DDM-solubilised 3H-NTS-bound NTSR1 (alone 24.9 °C): 25.1 °C
